Experimental data from publication PMC7482061.

What was measured:
Assay in all cases: SEC; Superdex S200 10/300 GL, buffer A (20 mM Tris-HCl pH 7.5, 18% glycerol) with 150 mM NaCl; mass from calibration with standard proteins; quaternary structure of the purified protein
[1] = molecular target: FdpA (CD1157), class A flavodiiron protein of Clostridioides difficile (Clostridioides difficile)
[2] = molecular target: revRbr1 (CD1474), reverse rubrerythrin 1 of Clostridioides difficile (Clostridioides difficile (strain 630Δerm genomic DNA))
[3] = molecular target: revRbr2 (CD1524), reverse rubrerythrin 2 of Clostridioides difficile (Clostridioides difficile (strain 630Δerm genomic DNA))

## FdpA (CD1157), class A flavodiiron protein of Clostridioides difficile (enzyme)
[1]
  stoichiometry N: 2

## revRbr1 (CD1474), reverse rubrerythrin 1 of Clostridioides difficile (enzyme)
[2]
  stoichiometry N: 4

## revRbr2 (CD1524), reverse rubrerythrin 2 of Clostridioides difficile (enzyme)
[3]
  stoichiometry N: 4
